In US20220162320A1 (published 2022):

How the values were obtained:
[1] = biological target: T1, CD3 (reagent of the affinity experiments of Example 18) (UniProt P07766 23-126); assay: BLI; aCD3 IgG analyte, apparent KD (bivalent), avid
T1 chain: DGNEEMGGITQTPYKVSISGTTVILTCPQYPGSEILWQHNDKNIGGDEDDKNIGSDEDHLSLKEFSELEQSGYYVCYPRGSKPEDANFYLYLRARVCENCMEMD

[2] = biological target: T1, CD3 (reagent of the affinity …); assay: BLI; aCD3 IgG analyte
[3] = biological target: T1, CD3 (reagent of the affinity …); assay: BLI; aCD3 IgG load
[4] = biological target: T2, HLA-PEPTIDE target G2: HLA-A*01:01_…, recombinant soluble complex (human, enzymatically biotinylated (BirA)); assay: BLI
[5] = biological target: T1, CD3 (reagent of the affinity …); assay: BLI
[6] = biological target: T2, HLA-PEPTIDE target G2: HLA-A*01:01_…, …; assay: BLI; apparent KD (bivalent), avid

B1: antibody designated αCD3, in IgG format (antibody, V domains shown)
VH: EVQLVESGGGLVQPGGSLRLSCAASGFTFSTYAMNWVRQAPGKGLEWVGRIRSKYNNYATYYADSVKGRFTISRDDSKNTLYLQMNSLRAEDTAVYYCVRHGNFGDSYVSWFAYWGQGTLVTVSS
VL: QAVVTQEPSLTVSPGGTVTLTCGSSTGAVTTSNYANWVQQKPGKSPRGLIGGTNKRAPGVPARFSGSLLGGKAALTISGAQPEDEADYYCALWYSNHWVFGGGTKLTVLR
B1 showed a Kd [1] of under 0.001 nM, a Kd [2] of 144 nM and a Kd [3] of 2.92 nM.

B2: 4-G2(1H11)-hOKT3 (bispecific antibody)
chain: not shown
heavy: QVQLVQSGAEVKKPGASVKVSCKASGYTFTNYYMHWVRQAPGQGLEWMGMINPSGGGTSYAQKFQGRVTMTRDTSTSTVYMELSSLRSEDTAVYYCARGNPWELRLDYWGQGTLVTVSSGGGGSGGGGSGGGGSGGGGSDIQMTQSPSSLSASVGDRVTITCQASQDISNYLNWYQQKPGKAPKLLIYAASSLQSGVPSRFSGSGSGTDFTLTISSLQPEDFATYYCQQYYSYPFTFGPGTKVDIKGGGGSGGGGSQVQLVQSGAEVKKPGASVKVSCKASGYTFTRYTMHWVRQAPGQGLEWMGYINPSRGYTNYNQKFKDRVTLTTDKSSSTAYMELSSLRSEDTAVYYCARYYDDHYSLDYWGQGTLVTVSSASTKGPSVFPLAPSSKSTSGGTAALGCLVKDYFPEPVTVSWNSGALTSGVHTFPAVLQSSGLYSLSSVVTVPSSSLGTQTYICNVNHKPSNTKVDKRVEPKSCDKTHTCPPCPAPELLGGPSVFLFPPKPKDTLMISRTPEVTCVVVDVSHEDPEVKFNWYVDGVEVHNAKTKPREEQYQSTYRVVSVLTVLHQDWLNGKEYKCKVSNKALPAPIEKTISKAKGQPREPQVCTLPPSREEMTKNQVSLSCAVKGFYPSDIAVEWESNGQPENNYKTTPPVLDSDGSFFLVSKLTVDKSRWQQGNVFSCSVMHEALHNRFTQKSLSLSPGK
light: DIQMTQSPSSLSASVGDRVTITCSASSSVSYMNWYQQKPGKAPKRLIYDTSKLASGVPSRFSGSGSGTDFTLTISSLQPEDFATYYCQQWSSNPFTFGQGTKLEIKRTVAAPSVFIFPPSDEQLKSGTASVVCLLNNFYPREAKVQWKVDNALQSGNSQESVTEQDSKDSTYSLSSTLTLSKADYEKHKVYACEVTHQGLSSPVTKSFNRGEC
B2 gave a Kd [4] of 5.34 nM, a Kd [5] of 26.1 nM and a Kd [6] of 2.72 nM.
